Data: patent US20180086821A1 (MAYO FOUNDATION FOR MEDICAL EDUCATION AND RESEARCH, published 2018)

Assays:
[1] = molecular target: T1, bovine serum albumin (BSA) (bovine, UniProt P02769 25-607); assay: solid-phase ELISA
T1 construct: Carrier alone, without hapten; also called carrier protein BSA

human RBC spectrin [2] = molecular target: T2, human RBC spectrin (human, UniProt P02549 1-2419; P11277 2-2137); assay: direct ELISA, mAb at 2 µg/ml
T2 construct: Bought from Sigma; also called human erythrocyte spectrin
T2 sequence (P02549 whole entry, chain 1 of 2): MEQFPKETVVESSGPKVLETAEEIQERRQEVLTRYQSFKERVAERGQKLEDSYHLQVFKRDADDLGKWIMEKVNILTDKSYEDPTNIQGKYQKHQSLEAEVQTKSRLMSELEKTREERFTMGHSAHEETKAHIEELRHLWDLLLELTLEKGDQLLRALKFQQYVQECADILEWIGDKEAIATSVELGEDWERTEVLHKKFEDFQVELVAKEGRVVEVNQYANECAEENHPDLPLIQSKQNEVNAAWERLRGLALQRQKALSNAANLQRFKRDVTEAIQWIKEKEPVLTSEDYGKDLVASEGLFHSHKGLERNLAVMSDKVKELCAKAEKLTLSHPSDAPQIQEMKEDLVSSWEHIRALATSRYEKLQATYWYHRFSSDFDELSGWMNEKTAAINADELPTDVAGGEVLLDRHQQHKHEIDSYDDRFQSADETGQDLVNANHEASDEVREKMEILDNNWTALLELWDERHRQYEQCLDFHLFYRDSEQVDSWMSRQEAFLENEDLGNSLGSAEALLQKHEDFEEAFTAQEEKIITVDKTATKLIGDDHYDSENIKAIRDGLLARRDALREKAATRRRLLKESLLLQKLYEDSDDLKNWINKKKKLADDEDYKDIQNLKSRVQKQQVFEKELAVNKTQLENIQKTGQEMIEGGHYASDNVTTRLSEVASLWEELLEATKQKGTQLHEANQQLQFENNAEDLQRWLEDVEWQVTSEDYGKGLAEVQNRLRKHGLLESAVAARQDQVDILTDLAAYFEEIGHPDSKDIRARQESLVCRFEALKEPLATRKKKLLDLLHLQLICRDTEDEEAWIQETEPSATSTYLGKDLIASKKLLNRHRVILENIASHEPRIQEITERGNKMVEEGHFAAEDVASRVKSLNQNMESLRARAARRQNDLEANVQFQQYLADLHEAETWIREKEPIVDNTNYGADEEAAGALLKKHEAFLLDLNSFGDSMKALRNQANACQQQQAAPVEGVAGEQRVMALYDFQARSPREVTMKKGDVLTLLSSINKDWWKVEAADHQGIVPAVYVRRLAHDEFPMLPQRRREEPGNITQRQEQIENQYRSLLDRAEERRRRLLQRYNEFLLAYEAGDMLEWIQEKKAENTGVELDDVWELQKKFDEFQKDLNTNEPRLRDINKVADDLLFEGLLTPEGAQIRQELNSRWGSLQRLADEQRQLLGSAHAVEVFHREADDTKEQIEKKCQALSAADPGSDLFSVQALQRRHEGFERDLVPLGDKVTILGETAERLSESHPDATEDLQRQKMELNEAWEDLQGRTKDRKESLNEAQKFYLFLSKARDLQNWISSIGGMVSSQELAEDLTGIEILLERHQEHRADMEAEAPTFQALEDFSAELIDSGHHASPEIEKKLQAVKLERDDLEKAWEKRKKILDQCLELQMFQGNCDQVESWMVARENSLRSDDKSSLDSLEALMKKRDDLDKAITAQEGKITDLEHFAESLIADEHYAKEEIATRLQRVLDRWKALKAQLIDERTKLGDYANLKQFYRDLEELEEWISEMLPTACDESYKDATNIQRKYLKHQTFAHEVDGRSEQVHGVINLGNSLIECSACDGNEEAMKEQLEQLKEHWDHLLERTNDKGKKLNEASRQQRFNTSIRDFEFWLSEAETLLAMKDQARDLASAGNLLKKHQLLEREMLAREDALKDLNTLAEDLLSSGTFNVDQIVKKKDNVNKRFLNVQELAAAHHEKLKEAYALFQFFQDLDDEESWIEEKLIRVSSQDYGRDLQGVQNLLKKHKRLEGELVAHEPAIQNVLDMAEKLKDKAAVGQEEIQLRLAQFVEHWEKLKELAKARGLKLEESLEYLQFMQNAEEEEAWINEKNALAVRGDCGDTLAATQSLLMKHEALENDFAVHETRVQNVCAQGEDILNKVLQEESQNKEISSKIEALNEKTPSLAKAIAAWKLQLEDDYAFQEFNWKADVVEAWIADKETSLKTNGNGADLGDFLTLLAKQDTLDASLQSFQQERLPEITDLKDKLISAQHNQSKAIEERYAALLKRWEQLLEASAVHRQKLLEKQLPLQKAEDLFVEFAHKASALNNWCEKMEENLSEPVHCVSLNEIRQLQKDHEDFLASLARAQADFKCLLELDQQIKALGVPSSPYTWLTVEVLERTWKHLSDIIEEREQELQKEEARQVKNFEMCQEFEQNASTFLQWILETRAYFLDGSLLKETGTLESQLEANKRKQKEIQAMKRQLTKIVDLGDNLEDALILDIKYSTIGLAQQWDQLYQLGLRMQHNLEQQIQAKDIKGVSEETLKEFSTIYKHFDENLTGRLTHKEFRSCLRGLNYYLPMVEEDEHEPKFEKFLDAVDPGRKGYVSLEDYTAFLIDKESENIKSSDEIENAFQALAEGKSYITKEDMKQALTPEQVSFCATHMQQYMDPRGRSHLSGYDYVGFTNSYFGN
T2 sequence (P11277 2-2137, chain 2 of 2): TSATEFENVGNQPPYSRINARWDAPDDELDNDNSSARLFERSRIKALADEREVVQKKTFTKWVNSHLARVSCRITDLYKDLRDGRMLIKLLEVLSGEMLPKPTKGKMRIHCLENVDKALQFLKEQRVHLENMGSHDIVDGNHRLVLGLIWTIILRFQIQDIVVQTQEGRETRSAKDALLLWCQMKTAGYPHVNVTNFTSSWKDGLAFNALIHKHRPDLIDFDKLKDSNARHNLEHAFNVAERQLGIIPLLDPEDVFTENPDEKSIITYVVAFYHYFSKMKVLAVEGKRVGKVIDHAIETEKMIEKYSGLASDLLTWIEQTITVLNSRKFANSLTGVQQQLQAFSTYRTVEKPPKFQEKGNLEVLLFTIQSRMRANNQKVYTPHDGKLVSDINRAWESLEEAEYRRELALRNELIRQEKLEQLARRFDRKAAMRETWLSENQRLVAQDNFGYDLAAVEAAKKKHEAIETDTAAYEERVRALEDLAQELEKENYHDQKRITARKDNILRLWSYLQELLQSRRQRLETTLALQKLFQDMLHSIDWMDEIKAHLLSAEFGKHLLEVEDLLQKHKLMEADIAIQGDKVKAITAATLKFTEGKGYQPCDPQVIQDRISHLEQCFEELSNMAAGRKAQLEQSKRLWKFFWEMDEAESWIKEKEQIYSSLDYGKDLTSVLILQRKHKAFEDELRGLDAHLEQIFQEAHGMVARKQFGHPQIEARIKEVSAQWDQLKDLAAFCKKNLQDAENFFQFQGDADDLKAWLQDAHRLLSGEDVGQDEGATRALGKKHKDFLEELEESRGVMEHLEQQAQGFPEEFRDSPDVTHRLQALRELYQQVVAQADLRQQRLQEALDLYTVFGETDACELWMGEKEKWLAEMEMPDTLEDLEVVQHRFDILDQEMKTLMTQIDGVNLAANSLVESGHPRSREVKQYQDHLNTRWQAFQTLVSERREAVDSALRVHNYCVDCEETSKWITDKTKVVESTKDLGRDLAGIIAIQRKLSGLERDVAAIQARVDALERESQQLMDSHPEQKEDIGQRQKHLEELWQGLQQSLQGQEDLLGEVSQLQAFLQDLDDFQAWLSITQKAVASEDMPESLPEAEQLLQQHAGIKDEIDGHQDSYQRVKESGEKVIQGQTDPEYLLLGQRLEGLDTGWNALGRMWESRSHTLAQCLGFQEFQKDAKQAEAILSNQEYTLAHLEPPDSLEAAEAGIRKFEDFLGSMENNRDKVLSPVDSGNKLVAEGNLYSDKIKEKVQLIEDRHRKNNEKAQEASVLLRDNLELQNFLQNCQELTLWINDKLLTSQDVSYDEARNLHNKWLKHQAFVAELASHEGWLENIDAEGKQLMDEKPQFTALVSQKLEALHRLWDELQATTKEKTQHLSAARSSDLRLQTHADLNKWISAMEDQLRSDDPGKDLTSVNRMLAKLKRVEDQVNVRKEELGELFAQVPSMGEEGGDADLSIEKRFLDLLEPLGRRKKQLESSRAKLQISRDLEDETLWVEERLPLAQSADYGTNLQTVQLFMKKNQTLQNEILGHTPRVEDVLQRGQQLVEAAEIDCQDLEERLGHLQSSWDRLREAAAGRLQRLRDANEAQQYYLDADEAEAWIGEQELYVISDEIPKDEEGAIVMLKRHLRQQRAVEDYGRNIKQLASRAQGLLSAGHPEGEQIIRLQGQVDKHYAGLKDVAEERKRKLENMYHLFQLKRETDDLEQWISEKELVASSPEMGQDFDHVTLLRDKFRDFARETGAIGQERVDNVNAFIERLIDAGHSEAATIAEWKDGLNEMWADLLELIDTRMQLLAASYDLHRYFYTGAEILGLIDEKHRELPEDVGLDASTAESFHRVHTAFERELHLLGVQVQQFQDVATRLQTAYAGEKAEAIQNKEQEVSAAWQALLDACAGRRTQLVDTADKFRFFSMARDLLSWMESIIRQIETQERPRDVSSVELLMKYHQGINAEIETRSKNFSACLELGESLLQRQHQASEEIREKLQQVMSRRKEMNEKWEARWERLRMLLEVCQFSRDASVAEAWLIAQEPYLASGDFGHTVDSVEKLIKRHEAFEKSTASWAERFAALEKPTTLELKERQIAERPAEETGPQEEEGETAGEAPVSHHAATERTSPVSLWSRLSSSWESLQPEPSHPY

hen egg lysozyme = molecular target: T3, hen egg lysozyme (hen (chicken), UniProt P00698 19-147); assay: direct ELISA, antigen coated at 5 µg/ml
T3 construct: Bought from Sigma; also called HEL
T3 sequence (P00698 19-147): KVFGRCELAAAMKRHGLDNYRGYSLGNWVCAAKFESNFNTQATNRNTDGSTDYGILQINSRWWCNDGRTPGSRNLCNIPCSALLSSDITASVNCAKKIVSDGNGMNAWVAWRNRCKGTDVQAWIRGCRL

mouse albumin = molecular target: T4, mouse albumin (mouse, UniProt P07724 25-608); assay: direct ELISA, antigen coated at 5 µg/ml
T4 construct: Bought from Sigma

mouse hemoglobin = molecular target: T5, mouse hemoglobin (mouse, UniProt P01942 2-142; P02088 2-147); assay: direct ELISA, antigen coated at 5 µg/ml
T5 construct: Bought from Sigma; also called Mo Hb

[3] = molecular target: T6, rabbit myelin basic protein (rabbit, UniProt P25274 1-168); assay: direct ELISA, antigen coated at 5 µg/ml
T6 construct: Bought from Sigma; also called rabbit MBP
T6 sequence (P25274 whole entry): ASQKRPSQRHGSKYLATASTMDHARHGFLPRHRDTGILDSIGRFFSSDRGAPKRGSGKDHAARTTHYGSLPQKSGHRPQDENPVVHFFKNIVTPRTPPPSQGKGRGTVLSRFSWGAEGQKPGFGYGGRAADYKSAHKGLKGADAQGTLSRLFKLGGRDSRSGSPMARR

human RBC spectrin [4] = molecular target: T2, human RBC spectrin; assay: direct ELISA, antigen coated at 5 µg/ml
mouse transferrin = molecular target: T7, mouse transferrin (mouse, UniProt Q921I1 20-697); assay: direct ELISA, antigen coated at 5 µg/ml
T7 construct: Bought from Sigma

B1: monoclonal antibody SCH94.03 (antibody, V domains shown)
VH: QVQLQQPGTELVKPGASVKLSCKASGYTFTSYWMHWVKQRPGQGLEWIGNINPSNGGTNYNEKFKSKATLTVDKSSSTAYMQLSSLTSEDSAVYYCARRAPYYGSRNFDYWGQGTTLTVSS
VL: DIQMTQTTSSLSASLGDRVTISCRASQDISNYLNWYQQKPDGTVKLLIYYTSRLHSGVPSRFSGSGSGTDYSLTISNLEQEDIATYFCQQGNTLPWTFGGGTKLEIKR
**Q.** Does B1 bind [1]?
**A.** Result: no binding

B2: mAb O1 (antibody, V domains shown)
VH: QVQLQQSGPELVKPGALVKISCKASGYTFTSYDINWVKQRPGQGLEWIGWIYPGDGSTKYNEKFKGKATLTADKSSSTAYMQLSSLTSENSAVYFCARGARFYWYFDVWGAGTTVTVSS
VL: DVQITQSPSYLAASPGETITINCRASKSISKYLAWYQEKPGKTNKLLIYSGSTLQSGIPSRFSGSGSGTDFTLTISSLEPEDFAMYYCQQHNEYPYTFGGGTKLEIKR
notes: Mouse IgM kappa; Entries may include the leader peptide; The hybridoma also makes the MOPC21 kappa chain; also called 01
**Q.** Does B2 bind (human RBC spectrin [2])?
**A.** Result: binds

B3: mAb A2B5 (antibody, mouse IgM, V domains shown)
VH: EVKLVESGGGLVQPGGSLRLSCATSGFTFSDFYMEWVRQPPGKRLEWIAASRNKANDYTTEYSASVKGRFIVSRDTSQSILYLQMNALRAEDTAIYYCARDARQLGLPAWFAYWGQGTLVTVSA
VL: QIVLTQSPAIMSASPGEKVTISCSASSSVSYMYWYQQKPGSSPKPWIYRTSNLASGVPARFSGSGSGTSYSLTISSMEAEDAATYYCQQYHSYPLTFGAGTKLELKR
notes: Mouse IgM kappa
**Q.** Does B3 bind (hen egg lysozyme)?
**A.** Result: no binding (tested: mAbs at 2 µg/ml)

**Q.** Does B3 bind (mouse albumin)?
**A.** Result: no binding (tested: mAbs at 2 µg/ml)

**Q.** Does B3 bind (mouse hemoglobin)?
**A.** Result: no binding (tested: mAbs at 2 µg/ml)

**Q.** Does B3 bind [3]?
**A.** Result: no binding (tested: mAbs at 2 µg/ml)

**Q.** Does B3 bind (human RBC spectrin [4])?
**A.** Result: no binding (tested: mAbs at 2 µg/ml)

**Q.** Does B3 bind (mouse transferrin)?
**A.** Result: no binding (tested: mAbs at 2 µg/ml)
